The results in this text go back to patent publication US20220307010A1 (TWIST BIOSCIENCE, published 2022).

Positions count from the first letter of the chain named.

For experiment [1], the target named is T1, TIGIT (T cell immunoreceptor with Ig and ITIM domains) (human, UniProt Q495A1 22-141, limits assumed).
T1 construct: also called hTIGIT; human TIGIT
T1 sequence (looked up): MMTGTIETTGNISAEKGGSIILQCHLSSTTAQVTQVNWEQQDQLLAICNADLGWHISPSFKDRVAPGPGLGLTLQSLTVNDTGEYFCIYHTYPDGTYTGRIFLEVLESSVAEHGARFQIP
As to the kind of experiment: SPR kinetics.

Experiment [2] concerns the target T2, TIGIT (T cell immunoreceptor with Ig and ITIM domains) (human, UniProt Q495A1 22-141, limits assumed).
T2 construct: also called hTIGIT; human TIGIT
T2 sequence (looked up): T1 sequence (looked up)
As to the kind of experiment: SPR, VHH-V5-His.

Experiment [3] deals with T1, TIGIT (T cell immunoreceptor with Ig …). The experiment can be described thus: ELISA. A general note: An ELISA detects its analyte on a solid surface through an enzyme-linked reagent.

B1: TIGIT-211-98 (antibody, V domains shown)
VH: EVQLLESGGGLVQPGGSLRLSCAASGFTFETYAMSWVRQAPGKGLEWVSVISGSGGRPNYADSVKGRFTISRDNSKNTLYLQMNSLRAEDTAVYYCAREGLWAFDYWGQGTLVTVSS
VL: DIQMTQSPSSLSASVGDRVTITCRASHFIGSLLSWYQQKPGKAPKLLIYETSKLASGVPSRFSGSGSGTDFTLTISSLQPEDFATYYCQQSYSYPRTFGQGTKVEIK
As usually defined, the Kd is the equilibrium constant for the complex coming apart. Broadly, the koff is the rate constant with which the complex falls apart. Lower therefore signals a long-lived complex. As a reminder, the kon is the rate constant with which the complex forms. Higher therefore signals faster complex formation. As to B1, in experiment [1], the Kd was found to be 574 µM, the koff stood at 0.098 s⁻¹ and the kon is 171 M⁻¹ s⁻¹.

B2: TIGIT-29-06 VHH-V5-His (VHH)
VHH: EVQLVESGGGLVQAGGSLRLSCAASGGTFRSYVMGWFRQAPGKEREWVATINSSGSRTYYADSVKGRFTISADNAKNTVYLQMNSLKPEDTAVYYCAARPNYRDYEYWGQGTQVTVSS
notes: not shown: V5-His tag
For the molecule B2, in experiment [2], the Kd turned out to be 433 µM and the koff was 0.02 s⁻¹.

B3: TIGIT-211-116 (antibody, V domains shown)
VH: EVQLLESGGGLVQPGGSLRLSCAASGFTFSRYFMGWVRQAPGKGLEWVSAISGSGGNTYYADSVKGRFTISRDNSKNTLYLQMNSLRAEDTAVYYCARVWRNHLDYWGQGTLVTVSS
VL: DIQMTQSPSSLSASVGDRVTITCRASQTIERRLNWYQQKPGKAPKLLIYHDNKRPSGVPSRFSGSGSGTDFTLTISSLQPEDFATYYCQQGYTLPWTFGQGTKVEIK
On to B3, for which, in experiment [1], the Kd stood at 269 µM, the koff was 0.105 s⁻¹ and the kon was found to be 389 M⁻¹ s⁻¹.

B4: TIGIT-211-13 (antibody, V domains shown)
VH: EVQLLESGGGLVQPGGSLRLSCAASGFTFNKYPMMWVRQAPGKGLEWVSYISSSGSSTYYADSVKGRFTISRDNSKNTLYLQMNSLRAEDTAVYYCARVIAAAGAFDYWGQGTLVTVSS
VL: DIQMTQSPSSLSASVGDRVTITCRASQSIREYLHWYQQKPGKAPKLLIYFGSELRKGVPSRFSGSGSGTDFTLTISSLQPEDFATYYCGQGVLWPATFGQGTKVEIK
As to B4, the ELISA in experiment [3] amounted to 15. In experiment [1], the Kd came to 0.221 µM, the koff stood at 0.326 s⁻¹ and the kon stood at 1.48e+06 M⁻¹ s⁻¹.

B5: TIGIT-211-15 (antibody, V domains shown)
VH: EVQLLESGGGLVQPGGSLRLSCAASGFTFSSAAMSWVRQAPGKGLEWVSGISPSGGITTYADSVKGRFTISRDNSKNTLYLQMNSLRAEDTAVYYCASLSRGYWGQGTLVTVSS
VL: DIQMTQSPSSLSASVGDRVTITCQSSQSVYSNNELSWYQQKPGKAPKLLIYGTSYRYSGVPSRFSGSGSGTDFTLTISSLQPEDFATYYCSSWAGSRSGTVFGQGTKVEIK
In experiment [3], B5 came in with an ELISA of 11.3. In experiment [1], this molecule returned a Kd of 0.301 µM, a koff of 0.00712 s⁻¹ and a kon of 23600 M⁻¹ s⁻¹.

B6: TIGIT-211-93 (antibody, V domains shown)
VH: EVQLLESGGGLVQPGGSLRLSCAASGFTFSRYFMGWVRQAPGKGLEWVSEISPSGKKKYYADSVKGRFTISRDNSKNTLYLQMNSLRAEDTAVYYCAKSSFDKYNFDYWGQGTLVTVSS
VL: DIQMTQSPSSLSASVGDRVTITCSASQDINKYLNWYQQKPGKAPKLLIYHTSRLQSGVPSRFSGSGSGTDFTLTISSLQPEDFATYYCQQFAYFPATFGQGTKVEIK
In experiment [1], B6 showed a Kd of 1.24 µM, a koff of 0.0281 s⁻¹ and a kon of 22700 M⁻¹ s⁻¹.

B7: TIGIT-29-18 VHH-V5-His (VHH)
VHH: EVQLVESGGGLVQAGGSLRLSCAASGSTFSNYAMGWFRQAPGKEREFVSAINSSGSRTYYADSVKGRFTISADNAKNTVYLQMNSLKPEDTAVYYCAARLWGTWTAGDYDYWGQGTQVTVSS
notes: not shown: V5-His tag
Turning to B7, in experiment [2], the koff came to 0.007 s⁻¹ and the kon was determined as 20000 M⁻¹ s⁻¹.

B8: TIGIT-29-34 VHH-V5-His (VHH)
VHH: B7 VHH with S27F, S30R, A50S, N52S, G55S, Y59S
notes: not shown: V5-His tag
In experiment [2], B8 registered a koff of 0.03 s⁻¹ and an on-rate (kon) of 30000 M⁻¹ s⁻¹.

B9: TIGIT-29-22 VHH-V5-His (VHH)
VHH: B7 VHH with T28I, F29L, N31S, A33T, A50T, N52S, S53R, G55S, S56T
notes: not shown: V5-His tag
B9: in experiment [2], the koff turned out to be 0.003 s⁻¹ and the kon came to 6000 M⁻¹ s⁻¹.

B10: TIGIT-29-01 VHH-V5-His (VHH)
VHH: EVQLVESGGGLVQAGGSLRLSCAASGRTFSNYAMGWFRQAPGKEREFVAAITWSGTRTDYADSVKGRFTISADNAKNTVYLQMNSLKPEDTAVYYCAAAAWTIYEYDYWGQGTQVTVSS
notes: not shown: V5-His tag
In experiment [2], B10 displayed a koff of 0.01 s⁻¹ and a kon of 30000 M⁻¹ s⁻¹.

B11: TIGIT-29-07 VHH-V5-His (VHH)
VHH: B10 VHH with R27S, T28I, A50T, T52S, W53R, S54G, D59N, E105A, D107N
notes: not shown: V5-His tag
In experiment [2], B11 yielded an off-rate (koff) of 0.004 s⁻¹ and a kon of 8000 M⁻¹ s⁻¹.

B12: TIGIT-29-30 VHH-V5-His (VHH)
VHH: B10 VHH with R27F, N31S, T102R, I103Y, Y104S
notes: not shown: V5-His tag
In experiment [2], B12 returned a koff of 0.08 s⁻¹ and a kon of 300000 M⁻¹ s⁻¹.

B13: TIGIT-29-12 VHH-V5-His (VHH)
VHH: B10 VHH with R27S, N31S, D59N, E105T, Y108S
notes: not shown: V5-His tag
As to B13, in experiment [2], the koff stood at 0.1 s⁻¹ and the kon was 10000 M⁻¹ s⁻¹.

B14: TIGIT-29-33 VHH-V5-His (VHH)
VHH: B10 VHH with R27F, T28I, N31T, F47L, A49S, W53R, T56I, R57T, D59Y
notes: not shown: V5-His tag
In experiment [2], B14 gave a Kd of 1.52 µM, a koff of 0.04 s⁻¹ and a kon of 20000 M⁻¹ s⁻¹.

B15: TIGIT-30-49 VHH-V5-His (VHH)
VHH: EVQLVESGGGLVQAGGSLRLSCAASGNIFSRYIMGWFRQAPGKEREWVAGISNGGTTKYADSVKGRFTISADNAKNTVYLQMNSLKPEDTAVYYCAQGWKIVPTNWGQGTQVTVSS
notes: not shown: V5-His tag
B15: in experiment [2], the koff was 0.08 s⁻¹ and the kon is 90000 M⁻¹ s⁻¹.

B16: TIGIT-30-15 VHH-V5-His (VHH)
VHH: EVQLVESGGGLVQAGGSLRLSCAASGFTFSGNWMGWFRQAPGKEREWVSGISSGGGRTYYADSVKGRFTISADNAKNTVYLQMNSLKPEDTAVYYCAADVWYGSTWRNWGQGTQVTVSS
notes: not shown: V5-His tag
Turning to B16, in experiment [2], the koff came to 0.004 s⁻¹ and the kon is 20000 M⁻¹ s⁻¹.

B17: TIGIT-30-20 VHH-V5-His (VHH)
VHH: EVQLVESGGGLVQAGGSLRLSCAASGPTFSIYDMGWFRQAPGKEREFVAVINWSRGSTFYADSVKGRFTISADNAKNTVYLQMNSLKPEDTAVYYCAAGVWSSLRHTAANWGQGTQVTVSS
notes: not shown: V5-His tag
In experiment [2], B17 returned a koff of 0.002 s⁻¹ and a kon of 10000 M⁻¹ s⁻¹.

B18: TIGIT-211-95 (antibody, V domains shown)
VH: EVQLLESGGGLVQPGGSLRLSCAASGFTFPKYGMAWVRQAPGKGLEWVSTISSGGGYTYYPDSVKGRFTISRDNSKNTLYLQMNSLRAEDTAVYYCARDTYLHFDYWGQGTLVTVSS
VL: DIQMTQSPSSLSASVGDRVTITCRASQGVRTSLAWYQQKPGKAPKLLIYAKNNRPSGVPSRFSGSGSGTDFTLTISSLQPEDFATYYCQQSYSAPYTFGQGTKVEIK
In experiment [1], B18 had a Kd of 0.355 µM, a koff of 0.0756 s⁻¹ and a kon of 213000 M⁻¹ s⁻¹.

B19: TIGIT-30-52 VHH-V5-His (VHH)
VHH: EVQLVESGGGLVQAGGSLRLSCAASGRTFSNYFMGWFRQAPGKERESVATVTWRDNITYYADSVKGRFTISADNAKNTVYLQMNSLKPEDTAVYYCASAGRWGQGTQVTVSS
notes: not shown: V5-His tag
In experiment [2], B19 returned a Kd of 4.25 µM, a koff of 0.1 s⁻¹ and a kon of 30000 M⁻¹ s⁻¹.

B20: TIGIT-30-30 VHH-V5-His (VHH)
VHH: EVQLVESGGGLVQAGGSLRLSCAASGGTFSGRGMGWFRQAPGKEREWVSSVYIFGGSTYYADSVKGRFTISADNAKNTVYLQMNSLKPEDTAVYYCANSNKPKFDWGQGTQVTVSS
notes: not shown: V5-His tag
For B20, in experiment [2], the Kd was 0.387 µM, the off-rate constant (koff) amounted to 0.006 s⁻¹ and the kon was determined as 10000 M⁻¹ s⁻¹.

B21: TIGIT-30-43 VHH-V5-His (VHH)
VHH: EVQLVESGGGLVQAGGSLRLSCAASGFTFSTSWMGWFRQAPGKERELVAARNSGGNTNYADSVKGRFTISADNAKNTVYLQMNSLKPEDTAVYYCAADVWYGSTWRNWGQGTQVTVSS
notes: not shown: V5-His tag
As to B21, in experiment [2], the koff came to 0.008 s⁻¹ and the kon came out at 70000 M⁻¹ s⁻¹.

B22: TIGIT-30-01 VHH-V5-His (VHH)
VHH: B21 VHH with T28A, T31S, S32Y
notes: not shown: V5-His tag
Consider B22, for which, in experiment [2], the koff stood at 0.08 s⁻¹ and the kon was 10000 M⁻¹ s⁻¹.

B23: TIGIT-30-40 VHH-V5-His (VHH)
VHH: B21 VHH with T31G, S32N, L47W, A49V, A50G, R51I, N52S, N56S, N58H
notes: not shown: V5-His tag
On to B23, for which, in experiment [2], the koff was found to be 0.006 s⁻¹ and the kon turned out to be 30000 M⁻¹ s⁻¹.

B24: TIGIT-211-77 (antibody, V domains shown)
VH: EVQLLESGGGLVQPGGSLRLSCAASGFTFGNYAMAWVRQAPGKGLEWVSSIWPSGGQTWYADSVKGRFTISRDNSKNTLYLQMNSLRAEDTAVYYCAKGGTSFDYWGQGTLVTVSS
VL: DIQMTQSPSSLSASVGDRVTITCRASQSVRSYLNWYQQKPGKAPKLLIYAASSLYSGVPSRFSGSGSGTDFTLTISSLQPEDFATYYCQQYASVPVTFGQGTKVEIK
In experiment [1], B24 displayed a Kd of 0.683 µM, a koff of 0.0417 s⁻¹ and a kon of 61000 M⁻¹ s⁻¹.

B25: TIGIT-29-10 VHH-V5-His (VHH)
VHH: EVQLVESGGGLVQAGGSLRLSCAASGRTFSNYGMGWFRQAPGKEREFVSGISGSGGRTSYADSVKGRFTISADNAKNTVYLQMNSLKPEDTAVYYCAANLWYPVDRLNTGFNYWGQGTQVTVSS
notes: not shown: V5-His tag
In experiment [2], B25 came in with a koff of 0.003 s⁻¹ and a kon of 10000 M⁻¹ s⁻¹.
